Results on 26 sequences are retold here after the supplement of paper PMC9732359.

± gives the uncertainty stated by the source.

The series is described as follows: protein stability index of a GFP-peptide fusion (yeast GPS) (PSI 1-4); higher = more stable; sorted into four equal gates, so the index is relative within each strain. Put shortly: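 Tiled yeast protein peptides of 17 residues were each joined downstream of GFP, on plasmids that also express Cherry. The pooled library was maintained in yeast, and mid-log cultures in leucine-free medium were sorted into four equal gates on the GFP/Cherry ratio. Plasmids from every gate were amplified by PCR and sequenced on Illumina, with barcodes linking reads to strains. The protein stability index of a peptide is its gate-number-weighted read frequency summed over the gates.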

On to PQNEKPPAYALLGSCQT [RPC25], for which the protein stability index worked out at 2.83 ± 0.26 (doa10∆), 2.76 ± 0.17 (pdr5∆) and 2.45 ± 0.13 (ubr1∆).
As to PQQQQQHLQFNGSSDAS [YDL088C/ASM4], the protein stability index runs as follows: (doa10∆) 2.41 ± 0.042; (pdr5∆) 2.22 ± 0.048; (san1∆) 2.04 ± 0.066; (ubr1∆) 2.27 ± 0.03.
The matching figures for PQYNMNMGMNNMNNGGK [PGD1]: 3.42 ± 0.21, 3.48 ± 0.19, 3.16 ± 0.11 and 3.24 ± 0.083.
The matching figures for PRFNRDNKVSPAAAAKK [RPS26B]: 2.41 ± 0.12, 2.5 ± 0.21, 2.61 ± 0.11 and 2.76 ± 0.12.
The matching figures for PSADGADKKDDSESNSE [ITC1]: 2.83 ± 0.083, 3.11 ± 0.065, 3.34 ± 0.068 and 2.96 ± 0.068.
On to PSAEIREAYIENFAKGE [SWP82], for which the protein stability index (doa10∆) worked out at 2.39 ± 0.073, the protein stability index (pdr5∆) was found to be 2.63 ± 0.084, the protein stability index (san1∆) is 2.58 ± 0.1 and the protein stability index (ubr1∆) is 2.4 ± 0.064.
Taken in the same sequence, the figures for PSASLKLHHDLKLCLGD [YMR129W/POM152] were 3.06 ± 0.073, 3.09 ± 0.07, 2.92 ± 0.083 and 3.03 ± 0.054.
As to PSDVNIDVMKSQIIPLM [SNU114], the protein stability index reads like this: (doa10∆) 2.15 ± 0.1; (pdr5∆) 1.82 ± 0.053; (san1∆) 2.65 ± 0.07; (ubr1∆) 1.82 ± 0.058.
The matching figures for PSENDVFYRMQQLRRAL [RPO31]: 2.03 ± 0.056, 1.94 ± 0.046, 2.5 ± 0.1 and 2.14 ± 0.067.
Taken in the same sequence, the figures for PSFGKRHNKSHTLCNRC [RPL37A] were 2.54 ± 0.1, 2.84 ± 0.08, 2.97 ± 0.12 and 2.68 ± 0.21.
The sequence PSGRTRGRSVMKESVVE [ESC2] registered a protein stability index (san1∆) of 2.99 ± 0.19 and a protein stability index (ubr1∆) of 3.67 ± 0.22.
As to PSIIFIDEVDSIATKRF [RPT3], the protein stability index by setting is: (doa10∆) 3.05 ± 0.096; (pdr5∆) 3.1 ± 0.067; (san1∆) 2.96 ± 0.046; (ubr1∆) 3.19 ± 0.068.
Taken in the same sequence, the figures for PSKLVITKLHLDKDRKA [RPL26A] were 1.73 ± 0.18, 1.75 ± 0.086, 1.75 ± 0.28 and 1.21 ± 0.099.
The matching figures for PSLEKSSFTFGSTTIEK [YLR335W/NUP2]: 2.17 ± 0.058, 2.65 ± 0.086, 1.66 ± 0.15 and 2.01 ± 0.056.
Taken in the same sequence, the figures for PSLNPIPHFIDNNSSLN [PRP8] were 2.3 ± 0.063, 2.52 ± 0.05, 2.78 ± 0.055 and 2.4 ± 0.045.
As for PSMMAPLRDNGLLDESP [YML031W/NDC1], the protein stability index is 2.79 ± 0.29 (pdr5∆) and 3.35 ± 0.11 (ubr1∆).
With PSPISHVAEIRSALEKG [RPB2], the protein stability index runs as follows: (doa10∆) 1.68 ± 0.076; (pdr5∆) 1.93 ± 0.066; (san1∆) 1.68 ± 0.09; (ubr1∆) 1.76 ± 0.053.
On to PSPKKVAIDQDKITLHD [SIR4], for which the protein stability index came out at 2.36 ± 0.064 (doa10∆), 2.53 ± 0.064 (pdr5∆), 2.27 ± 0.079 (san1∆) and 2.88 ± 0.05 (ubr1∆).
The matching figures for PSQGMVVEISNGNTSSK [FAS1]: 3.08 ± 0.057, 3.27 ± 0.051, 3.2 ± 0.048 and 3.29 ± 0.056.
The matching figures for PSSMATLLKNLRKKLNF [YJR042W/NUP85]: 2.91 ± 0.078, 2.73 ± 0.075, 2.91 ± 0.079 and 2.89 ± 0.066.
Taken in the same sequence, the figures for PSTNAQNVNVPSAFNFT [YOR098C/NUP1] were 2.6 ± 0.046, 2.73 ± 0.054, 2.67 ± 0.041 and 2.75 ± 0.045.
PSYYYYVDPETTYTYQQ [ROX3]: the protein stability index was found to be 2.93 ± 0.075 (doa10∆), 3.09 ± 0.079 (pdr5∆), 2.85 ± 0.053 (san1∆) and 3.16 ± 0.07 (ubr1∆).
Taken in the same sequence, the figures for PTGGKAKLSEGTSFRRK [RPS27A] were 3.4 ± 0.081, 3.33 ± 0.11, 3.33 ± 0.065 and 3.33 ± 0.059.
The matching figures for PTGKEEGDGAKAAISFG [YJL041W/NSP1]: 3.37 ± 0.11, 3.04 ± 0.1, 3.35 ± 0.1 and 3.38 ± 0.069.
The matching figures for PTLGERLDNLQDIKKAK [DSN1]: 1.54 ± 0.082, 1.25 ± 0.041, 2.71 ± 0.085 and 2.86 ± 0.064.
PTMYTRLCICSGMLFEM [SIN4]: the protein stability index turned out to be 1.29 ± 0.041 (doa10∆), 1.28 ± 0.041 (pdr5∆), 1.39 ± 0.08 (san1∆) and 1.44 ± 0.033 (ubr1∆).
